Source: patent US20250215412A1 (NOVOZYMES A S, published 2025)
Numbering of substitutions follows the chain as printed. In names and notes the source's numbering stands.

T1: Chryseobacterium sp-62563 deamidase polypeptide (second polypeptide, deamidase domain), wildtype (Chryseobacterium sp-62563)
T1 sequence: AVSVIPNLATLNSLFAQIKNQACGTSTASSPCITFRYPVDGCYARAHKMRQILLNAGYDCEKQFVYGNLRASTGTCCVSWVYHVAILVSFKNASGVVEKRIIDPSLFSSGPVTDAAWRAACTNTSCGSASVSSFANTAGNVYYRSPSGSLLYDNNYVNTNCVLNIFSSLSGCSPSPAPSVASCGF

B1: Chryseobacterium sp-62563 propeptide K96N (protein)
chain: NQDPNLVAKESNETAMKDFGKTVPVGIEKEDGKFKISFMVTAQPYEIKDSKENAAYISMIKTAVENETPIHVFLKANTNEIAKVDKATDDDIRYFNSVFTKEVKEENRK
B2: Chryseobacterium sp-62563 propeptide I92A (protein)
chain: B1 chain with I92A, N96K
B3: Chryseobacterium sp-62563 propeptide D91S (protein)
chain: B1 chain with D91S, N96K
B4: Chryseobacterium sp-62563 propeptide I92S (protein)
chain: B1 chain with I92S, N96K
B5: Chryseobacterium sp-62563 propeptide E67L (protein)
chain: B1 chain with E67L, N96K
B6: Chryseobacterium sp-62563 propeptide E67W (protein)
chain: B1 chain with E67W, N96K
B7: Chryseobacterium sp-62563 propeptide Y94R (protein)
chain: B1 chain with Y94R, N96K
B8: Chryseobacterium sp-62563 propeptide F95N (protein)
chain: B1 chain with F95N, N96K
B9: Chryseobacterium sp-62563 propeptide K96L (protein)
chain: B1 chain with N96L
B10: Chryseobacterium sp-62563 propeptide D91M (protein)
chain: B1 chain with D91M, N96K
B11: Chryseobacterium sp-62563 propeptide E67R (protein)
chain: B1 chain with E67R, N96K
B12: Chryseobacterium sp-62563 propeptide E67V (protein)
chain: B1 chain with E67V, N96K
B13: Chryseobacterium sp-62563 propeptide F95H (protein)
chain: B1 chain with F95H, N96K
B14: Chryseobacterium sp-62563 propeptide D91G (protein)
chain: B1 chain with D91G, N96K
B15: Chryseobacterium sp-62563 propeptide Y94K (protein)
chain: B1 chain with Y94K, N96K
B16: Chryseobacterium sp-62563 propeptide T88I (protein)
chain: B1 chain with T88I, N96K
B17: Chryseobacterium sp-62563 propeptide I92M (protein)
chain: B1 chain with I92M, N96K
B18: Chryseobacterium sp-62563 propeptide F95Y (protein)
chain: B1 chain with F95Y, N96K
B19: Chryseobacterium sp-62563 propeptide P69S (protein)
chain: B1 chain with P69S, N96K
B20: Chryseobacterium sp-62563 propeptide P69T (protein)
chain: B1 chain with P69T, N96K
B21: Chryseobacterium sp-62563 propeptide F95R (protein)
chain: B1 chain with F95R, N96K
B22: Chryseobacterium sp-62563 propeptide E67M (protein)
chain: B1 chain with E67M, N96K
B23: Chryseobacterium sp-62563 propeptide I92K (protein)
chain: B1 chain with I92K, N96K
B24: Chryseobacterium sp-62563 propeptide T88G (protein)
chain: B1 chain with T88G, N96K
B25: Chryseobacterium sp-62563 propeptide K96I (protein)
chain: B1 chain with N96I
B26: Chryseobacterium sp-62563 propeptide I92G (protein)
chain: B1 chain with I92G, N96K
B27: Chryseobacterium sp-62563 propeptide T88H (protein)
chain: B1 chain with T88H, N96K
B28: Chryseobacterium sp-62563 propeptide E67H (protein)
chain: B1 chain with E67H, N96K
B29: Chryseobacterium sp-62563 propeptide T88V (protein)
chain: B1 chain with T88V, N96K
B30: Chryseobacterium sp-62563 propeptide K96C (protein)
chain: B1 chain with N96C
B31: Chryseobacterium sp-62563 propeptide D91Q (protein)
chain: B1 chain with D91Q, N96K
B32: Chryseobacterium sp-62563 propeptide F95M (protein)
chain: B1 chain with F95M, N96K
B33: Chryseobacterium sp-62563 propeptide I92L (protein)
chain: B1 chain with I92L, N96K
B34: Chryseobacterium sp-62563 propeptide F95I (protein)
chain: B1 chain with F95I, N96K
B35: Chryseobacterium sp-62563 propeptide K96M (protein)
chain: B1 chain with N96M
B36: Chryseobacterium sp-62563 propeptide F95S (protein)
chain: B1 chain with F95S, N96K
B37: Chryseobacterium sp-62563 propeptide T88K (protein)
chain: B1 chain with T88K, N96K
B38: Chryseobacterium sp-62563 propeptide F95W (protein)
chain: B1 chain with F95W, N96K
B39: Chryseobacterium sp-62563 propeptide T88F (protein)
chain: B1 chain with T88F, N96K
B40: Chryseobacterium sp-62563 propeptide K96E (protein)
chain: B1 chain with N96E
B41: Chryseobacterium sp-62563 propeptide E67K (protein)
chain: B1 chain with E67K, N96K
B42: Chryseobacterium sp-62563 propeptide T88R (protein)
chain: B1 chain with T88R, N96K
B43: Chryseobacterium sp-62563 propeptide K96F (protein)
chain: B1 chain with N96F
B44: Chryseobacterium sp-62563 propeptide E67I (protein)
chain: B1 chain with E67I, N96K
B45: Chryseobacterium sp-62563 propeptide F95T (protein)
chain: B1 chain with F95T, N96K
B46: Chryseobacterium sp-62563 propeptide F95A (protein)
chain: B1 chain with F95A, N96K
B47: Chryseobacterium sp-62563 propeptide K96H (protein)
chain: B1 chain with N96H
B48: Chryseobacterium sp-62563 propeptide F95L (protein)
chain: B1 chain with F95L, N96K
B49: Chryseobacterium sp-62563 propeptide F95K (protein)
chain: B1 chain with F95K, N96K
B50: Chryseobacterium sp-62563 propeptide D91H (protein)
chain: B1 chain with D91H, N96K
B51: Chryseobacterium sp-62563 propeptide E67T (protein)
chain: B1 chain with E67T, N96K
B52: Chryseobacterium sp-62563 propeptide E67S (protein)
chain: B1 chain with E67S, N96K
B53: Chryseobacterium sp-62563 propeptide F95V (protein)
chain: B1 chain with F95V, N96K
B54: Chryseobacterium sp-62563 propeptide F73E (protein)
chain: B1 chain with F73E, N96K

molecular target: T1, Chryseobacterium sp-62563 deamidase polypeptide (second polypeptide, deamidase domain), wildtype (Chryseobacterium sp-62563); assay: cell-based or functional assay

Row | Relative activity of maturated deamidase (% initial rate) | NanoDSF thermal unfolding temperature [° C.] | Binder
1 | 55 | – | B1
2 | 31 | – | B2
3 | 48 | – | B3
4 | 40 | – | B4
5 | 55 | – | B5
6 | > 100 | – | B6
7 | 52 | – | B7
8 | 85 | – | B8
9 | 50 | – | B9
10 | 31 | – | B10
11 | 95 | – | B11
12 | 27 | – | B12
13 | 76 | – | B13
14 | 56 | – | B14
15 | 49 | – | B15
16 | 52 | – | B16
17 | 38 | – | B17
18 | 27 | – | B18
19 | – | 77.7 | B19
20 | 33 | 78.5 | B20
21 | > 100 | – | B21
22 | 37 | – | B22
23 | 32 | – | B23
24 | 66 | – | B24
25 | 71 | – | B25
26 | 69 | – | B26
27 | 41 | – | B27

Row | Relative activity of maturated deamidase (% initial rate) | NanoDSF thermal unfolding temperature [° C.] | Binder
28 | 78 | – | B28
29 | 51 | – | B29
30 | 95 | – | B30
31 | 28 | – | B31
32 | 51 | – | B32
33 | 31 | – | B33
34 | 58 | – | B34
35 | 45 | – | B35
36 | > 100 | – | B36
37 | 33 | – | B37
38 | 58 | – | B38
39 | 28 | – | B39
40 | > 100 | – | B40
41 | > 100 | – | B41
42 | 46 | – | B42
43 | 95 | – | B43
44 | 31 | – | B44
45 | 93 | – | B45
46 | > 100 | – | B46
47 | 30 | – | B47
48 | 61 | – | B48
49 | > 100 | – | B49
50 | 64 | – | B50
51 | 40 | – | B51
52 | 42 | – | B52
53 | 66 | – | B53
54 | 28 | – | B54
